Experimental data as given in US20260224762A1, “RADIONUCLIDE LABELLED PEPTIDE CONJUGATE FOR SITE-SPECIFIC UPAR-TARGETING” (CURASIGHT A/S, priority 2023, published 2026).
Entries after “also recorded” stand apart in the source; their conditions may differ. Like-named read-outs stand apart in the source and are kept apart here.

How the values were obtained:
[1] = system: subcutaneous U87 MG tumors; assay: in vivo; parameters: species or system female NMRI nude mice; settings: mouse
Method: (§1) The biodistribution of 67Cu-DOTA-AE105 was evaluated in female NMRI nude mice bearing subcutaneous U87 MG tumors. The U87 MG tumor cell line is a human glioblastoma cell line. Animals were stratified into four groups (A, B, C, D) based on tumor volume and body weight on study day-2. Animals in group A were injected with 26.4±0.4 MBq, animals in group B received 55.1±0.2 MBq, animals in group C received 54.3±0.5 MBq and animals in group D received 55.2±0.2 MBq (mean±SEM). The biodistribution was evaluated using SPECT/CT imaging, 2H, 24H, 48H, 96H and 168H after injection. Furthermore, conventional ex vivo biodistribution was evaluated after final imaging timepoints 96H and 168H.
(§2) The results are shown in FIG. 1 as percentage injected dose per gram (% ID/g) and are corrected for radioactive decay. The data in FIG. 1 are derived from the in vivo SPECT/CT imaging.

in vivo [2] = assay: in vivo; parameters: species or system female NMRI nude mice; settings: female, NMRI nude, mouse, iv, total radioactivity
Method: as §1, §2

[3] = system: subcutaneous U87 MG tumors; assay: in vivo; parameters: species or system female NMRI nude mice; settings: mouse; remark: listed apart in the source
Method: (§3) The biodistribution of 225Ac-DOTA-AE105 was evaluated in female NMRI nude mice bearing subcutaneous U87 MG tumors. The U87 MG tumor cell line is a human glioblastoma cell line. Animals were stratified into two groups (A and B) based on tumor volume and body weight on study day-2. Animals in group A were injected with 30 kBq of 225Ac-DOTA-AE105 having a specific activity of 30 kBq/nmol, animals in group B received a thousand-fold dose of DOTA-AE105 (cold construct) immediately before receiving 30 kBq of 225Ac-DOTA-AE105 having a specific activity of 30 kBq/nmol. The biodistribution was evaluated using conventional ex vivo biodistribution 1 hour (1H) after injection. The results are shown in FIG. 10 as percentage injected dose per gram (% ID/g) and are corrected for radioactive decay.

in vivo [4] = assay: in vivo; parameters: species or system female NMRI nude mice; settings: female, NMRI nude, mouse, 30 kBq, total radioactivity
Method: as §3

[5] = parameters: species or system female NMRI nude mice; settings: mouse, in vivo, 50 MBq
Method: The tumor binding and retention of 177Lu-DOTA-AE105 was evaluated in female NMRI nude mice bearing subcutaneous U87 MG tumors.
Animals were dosed with approximately 50 MBq 177Lu-DOTA-AE105 at study day 0. Tumor binding and retention of 177Lu-DOTA-AE105 was evaluated by SPECT/CT imaging at 0.5H, 2H and 24H after injection. The results for tumor binding and retention of 177Lu-DOTA-AE105 and the data for 67Cu-DOTA-AE105 from example 2 (table 5b) are summarized in table 6 below.

tumor = settings: in vivo; cited from earlier work
[6] = system: subcutaneous U87 MG tumors; assay: Treatment efficacy of 177Lu-DOTA-AE105 in glioblastoma xenograft mice; format: in vivo, female NMRI nude mice; settings: study day 18; group B 92.1 MBq p=0.32; group C three doses of about 30 MBq p=0.84
Method: Furthermore, the efficacy of 177Lu-DOTA-AE105 was tested in female NMRI nude mice bearing subcutaneous U87 MG tumors.
Animals were stratified into three groups (A, B, and C) based on tumor volume and body weight on study day 0. The mean inclusion volume was […] (range 15.0-339.0 mm^3), while the inclusion weight was 23.6±0.4 g (range […]).
Animals were dosed with either vehicle (group A) or 177Lu-DOTA-AE105 (group B, and C) at different activity levels on study day 0. Animals in group B received 92.1±1.7 MBq, animals in group C received 32.9±0.4 MBq. At study day 4 animals in group C received an additional dosing with 26.7±0.2 MBq and at study day 8 animals in group C were dosed with 30.7±0.2 MBq. Doses are calculated by retracting residual dose from the activity measured before injection. No decay correction has been applied.
Tumor volume and body weight was monitored twice a week after the first dosing. The efficacy was evaluated over a period of 5 weeks after first dosing. Each of the treatment groups were compared to the vehicle control group A.
Differences in tumor volume were evaluated at the latest timepoint where minimum 50% of animals were alive within each of the compared groups.

uPAR = uPAR (Homo sapiens, UniProt Q03405); assay: uPAR binding by Surface Plasmon Resonance (SPR); settings: for SPR K(off) / SPR K(on): 18 degrees Celsius, HEPES pH 7.4
Method: Characterization of the binding properties of lead (Pb) labelled DOTA-AE105 to its target i.e. uPAR was measured by Surface Plasmon Resonance (SPR) and expressed as the binding constant (KD), which is a measure of affinity of the conjugate towards its target.
Characterizing the interaction between a target protein (in this case uPAR) and a ligand by SPR is a well-known method for the skilled person.
The target protein uPAR was captured, via a protein tag, onto a sensor chip and the test compound (Pb2+-DOTA-AE105 and Cu2+-DOTA-AE105 respectively) were dissolved in running buffer (10 mM HEPES buffer at pH 7.4, 150 mM NaCl, […]+0.05% Tween-20) and prepared in 5-point concentration series with three-fold dilution with top concentration around 500 nM of the test compound. The assay was conducted at 18 degrees Celsius.

Sequence of uPAR (Q03405 23-305): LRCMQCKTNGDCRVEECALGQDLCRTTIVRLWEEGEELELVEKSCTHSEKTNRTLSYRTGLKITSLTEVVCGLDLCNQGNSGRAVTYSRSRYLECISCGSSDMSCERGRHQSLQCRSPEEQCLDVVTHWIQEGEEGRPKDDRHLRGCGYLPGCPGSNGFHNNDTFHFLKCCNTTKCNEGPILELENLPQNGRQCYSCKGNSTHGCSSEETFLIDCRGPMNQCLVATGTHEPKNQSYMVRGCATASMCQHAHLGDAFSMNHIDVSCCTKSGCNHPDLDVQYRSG

## CC(C)C[C@H](NC(=O)[C@H](Cc1ccc(O)cc1)NC(=O)C(CCCNC(=N)N)NC(=O)C(CO)NC(=O)C(Cc1ccccc1)NC(=O)[C@H](CC1CCCCC1)NC(=O)[C@H](CC(=O)O)NC(=O)CN1CCN(CC(=O)O)CCN(CC(=O)O)CCN(CC(=O)O)CC1)C(=O)N[C@@H](Cc1c[nH]c2ccccc12)C(=O)N[C@@H](CO)C(N)=O (single isomer, unassigned) [67Cu-DOTA-AE105, metal not drawn]
[1]
  Tumor binding, times higher compared to 177Lu-DOTA-AE105: approximately 50 times
  Uptake in other organs such as heart, kidney, and muscle: low uptake
In vivo [2]; 30 MBq
  tissue uptake at 2 h: 5.31 ± 0.73 %ID/g
  tissue uptake at 24 h: 5.02 ± 0.08 %ID/g
  tissue uptake at 48 h: 3.44 ± 0.11 %ID/g
  tissue uptake at 96 h: 1.74 ± 0.22 %ID/g
  tissue uptake at 168 h: 0.88 ± 0.15 %ID/g
In vivo [2]; 60 MBq
  tissue uptake at 2 h: 6.61 ± 1.11 %ID/g
  tissue uptake at 24 h: 6.47 ± 0.5 %ID/g
  tissue uptake at 48 h: 4.24 ± 0.14 %ID/g
  tissue uptake at 96 h: 1.7 ± 0.07 %ID/g
  tissue uptake at 168 h: 0.64 ± 0.05 %ID/g

## CC(C)C[C@H](NC(=O)[C@H](Cc1ccc(O)cc1)NC(=O)C(CCCNC(=N)N)NC(=O)C(CO)NC(=O)C(Cc1ccccc1)NC(=O)[C@H](CC1CCCCC1)NC(=O)[C@H](CC(=O)O)NC(=O)CN1CCN(CC(=O)O)CCN(CC(=O)O)CCN(CC(=O)O)CC1)C(=O)N[C@@H](Cc1c[nH]c2ccccc12)C(=O)N[C@@H](CO)C(N)=O (single isomer, unassigned) [225Ac-DOTA-AE105, metal not drawn]
[3]
  Tumor binding, times higher compared to 177Lu-DOTA-AE105: approximately 5 times
In vivo [4]
  tissue uptake at 1 h: 3 %ID/g

## CC(C)C[C@H](NC(=O)[C@H](Cc1ccc(O)cc1)NC(=O)[C@@H](CCCNC(=N)N)NC(=O)[C@@H](CO)NC(=O)[C@H](Cc1ccccc1)NC(=O)[C@H](CC1CCCCC1)NC(=O)[C@H](CC(=O)O)NC(=O)CN1CCN(CC(=O)O)CCN(CC(=O)O)CCN(CC(=O)O)CC1)C(=O)N[C@@H](Cc1c[nH]c2ccccc12)C(=O)N[C@@H](CO)C(N)=O [177Lu-DOTA-AE105, metal not drawn]
[5]
  tissue uptake at 0.5 h: 0.749 ± 0.166 %ID/g
  tissue uptake at 2 h: 0.128 ± 0.011 %ID/g
  tissue uptake at 24 h: 0.098 ± 0.001 %ID/g
tumor
  Tumor binding and tumor retention compared to the peptide alone: vastly decreased
[6]
  Tumor volume compared to vehicle control group / therapeutic effect: no significant difference; also recorded: did not show any therapeutical effect

## CC(C)C[C@H](NC(=O)[C@H](Cc1ccc(O)cc1)NC(=O)[C@@H](CCCNC(=N)N)NC(=O)[C@@H](CO)NC(=O)[C@H](Cc1ccccc1)NC(=O)[C@H](CC1CCCCC1)NC(=O)[C@@H](CC(=O)O)NC(=O)CN1CCN(CC(=O)O)CCN(CC(=O)O)CCN(CC(=O)O)CC1)C(=O)N[C@@H](Cc1c[nH]c2ccccc12)C(=O)N[C@@H](CO)C(N)=O [Cu2+-DOTA-AE105]
uPAR
  SPR K(off): 19.95
  SPR K(on): 0.110

## CC(C)C[C@H](NC(=O)[C@H](Cc1ccc(O)cc1)NC(=O)[C@@H](CCCNC(=N)N)NC(=O)[C@@H](CO)NC(=O)[C@H](Cc1ccccc1)NC(=O)[C@H](CC1CCCCC1)NC(=O)[C@@H](CC(=O)O)NC(=O)CN1CCN(CC(=O)O)CCN(CC(=O)O)CCN(CC(=O)O)CC1)C(=O)N[C@@H](Cc1c[nH]c2ccccc12)C(=O)N[C@@H](CO)C(N)=O [Pb2+-DOTA-AE105]
uPAR
  SPR K(off): 1.78
  SPR K(on): 0.102
uPAR; ratio of KD
  Affinity fold higher than Cu2+-DOTA-AE105: more than 10 fold
